Results as given in PMC8017705 (Proceedings of the National Academy of Sciences of the …, 2021).
The star is where a group is joined. Biotin = O=C1N[C@H]2[C@H](CS[C@H]2CCCCC(=O)*)N1

Target: T1, human RORγt ligand binding domain (residues 265 to 518) with an N-terminal His6-tag (human, UniProt P51449-1 265-518)
T1 sequence (looked up): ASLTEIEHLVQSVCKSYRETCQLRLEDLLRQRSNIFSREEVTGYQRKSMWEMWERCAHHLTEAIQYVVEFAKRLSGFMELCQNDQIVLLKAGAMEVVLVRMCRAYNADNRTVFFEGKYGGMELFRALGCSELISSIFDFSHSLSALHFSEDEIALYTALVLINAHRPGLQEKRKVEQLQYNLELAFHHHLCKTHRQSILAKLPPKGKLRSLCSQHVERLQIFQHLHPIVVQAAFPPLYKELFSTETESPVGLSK
Experiment: AlphaScreen or HTRF

B1: N-terminal biotinylated SRC-1 box2 peptide (peptide)
peptide: Biotin-PSSHSSLTARHKILHRLLQEGSPSD-NH2
SMILES: CC[C@H](C)[C@H](NC(=O)[C@H](CCCCN)NC(=O)[C@H](Cc1c[nH]cn1)NC(=O)[C@H](CCCNC(=N)N)NC(=O)[C@H](C)NC(=O)[C@@H](NC(=O)[C@H](CC(C)C)NC(=O)[C@H](CO)NC(=O)[C@H](CO)NC(=O)[C@H](Cc1c[nH]cn1)NC(=O)[C@H](CO)NC(=O)[C@H](CO)NC(=O)[C@@H]1CCCN1C(=O)CCCC[C@@H]1SC[C@@H]2NC(=O)N[C@@H]21)[C@@H](C)O)C(=O)N[C@@H](CC(C)C)C(=O)N[C@@H](Cc1c[nH]cn1)C(=O)N[C@@H](CCCNC(=N)N)C(=O)N[C@@H](CC(C)C)C(=O)N[C@@H](CC(C)C)C(=O)N[C@@H](CCC(N)=O)C(=O)N[C@@H](CCC(=O)O)C(=O)NCC(=O)N[C@@H](CO)C(=O)N1CCC[C@H]1C(=O)N[C@@H](CO)C(=O)N[C@@H](CC(=O)O)C(N)=O
B1: binds.
